Measured values: PMC10659578, “Mechanism of stepwise electron transfer in six-transmembrane epithelial antigen of the prostate (STEAP) 1 and 2” (eLife, 2023)

Assays:
[1] = molecular target: Rabbit six-transmembrane epithelial antigen of the prostate 1 (STEAP1) (rabbit)
[2] = molecular target: Rabbit six-transmembrane epithelial antigen of the prostate 1 (STEAP1) (rabbit); experiment: BLI; STEAP1 immobilised on amine reactive second-generation biosensors (EDC/Sulfo-NHS); b5R at 20, 10, 5, 2.5, 1.3 and 0.6 uM; 30 C, 1000 rpm; 20 mM HEPES pH 7.5, 150 mM NaCl, 0.1% LMNG, 0.1% BSA; KD from equilibrium responses (Req) against [b5R]

B1: Mouse cytochrome b5 reductase, soluble form (residues 24-301) (enzyme)
chain: SKVPLKQGRSLMDWIRLTKSGKDLTGLKGGLIEVTEEELKKHNKKEDCWICIRGFVYNVSPYMEYHPGGEDELMRAAGADGTDLFNEVHRWVNYESMLKECLVGRMAVKPAVPKDCHEGKRVLNGMLPKSQMSDTLPRDVTDTLPREDLSSPSYDWFQTESSVTIVVYTKQKNISLDSVIVDLQDDSLRAEAVIKDHSYLVHVGLSHEVQENFSVRVIENVGKIEIVLQKKESVSWQCLGDHLEKHDSFIPKKDTGLYYRRCQLISKEDVTHDTRLFC
rate constant of the B to C conversion (reduction of the heme of 1.5 uM STEAP1 pre-incubated with 1.5 uM b5R after mixing with 10 uM NADH; rapid-scan stopped flow, anaerobic) [1]: 0.13 s^–1 | Kd [2]: 5.9 µM
